Assay results as given in paper PMC10199079, “ERK and USP5 govern PD-1 homeostasis via deubiquitination to modulate tumor immunotherapy” (Nature Communications, 2023).
Each block holds one molecule with its values, some of them ahead of it.

Key:
[1] = molecular target: USP5 (UniProt P45974); assay: GST pull-down with purified His-USP5; details: reference: GST-PD-1 (192-288) wild type, ERK1-treated; sites T234
[2] = molecular target: USP5 (UniProt P45974); assay: biotin-peptide streptavidin pull-down; details: reference: unphosphorylated PD-1 peptide; sites T234
[3] = molecular target: USP5 UBA1/2 domains (UniProt P45974); assay: biotin-peptide streptavidin pull-down; details: reference: unphosphorylated PD-1 peptide; sites T234
[4] = molecular target: USP5 (UniProt P45974); assay: anti-HA co-immunoprecipitation, immunoblot; details: reference: PD-1 wild type; sites T234
[5] = molecular target: USP5 (UniProt P45974); assay: GST-USP5 pull-down from cell lysate; details: reference: PD-1-cHA wild type lysate; sites T234
[6] = molecular target: T1, His-USP5 (human, UniProt P45974 1-858); assay: pull-down; bacterially purified GST-PD-1 (192-288) phosphorylated by ERK1 in vitro, then GST pull-down with purified recombinant His-USP5, immunoblot; details: both partners purified
T1 construct: recombinant human USP5, His-tagged; also called recombinant human USP5 protein; purified recombinant His-USP5; source: bought: Sino biological (12772-H08B), purified recombinant USP5 from baculovirus-insect cells
T1 sequence (looked up): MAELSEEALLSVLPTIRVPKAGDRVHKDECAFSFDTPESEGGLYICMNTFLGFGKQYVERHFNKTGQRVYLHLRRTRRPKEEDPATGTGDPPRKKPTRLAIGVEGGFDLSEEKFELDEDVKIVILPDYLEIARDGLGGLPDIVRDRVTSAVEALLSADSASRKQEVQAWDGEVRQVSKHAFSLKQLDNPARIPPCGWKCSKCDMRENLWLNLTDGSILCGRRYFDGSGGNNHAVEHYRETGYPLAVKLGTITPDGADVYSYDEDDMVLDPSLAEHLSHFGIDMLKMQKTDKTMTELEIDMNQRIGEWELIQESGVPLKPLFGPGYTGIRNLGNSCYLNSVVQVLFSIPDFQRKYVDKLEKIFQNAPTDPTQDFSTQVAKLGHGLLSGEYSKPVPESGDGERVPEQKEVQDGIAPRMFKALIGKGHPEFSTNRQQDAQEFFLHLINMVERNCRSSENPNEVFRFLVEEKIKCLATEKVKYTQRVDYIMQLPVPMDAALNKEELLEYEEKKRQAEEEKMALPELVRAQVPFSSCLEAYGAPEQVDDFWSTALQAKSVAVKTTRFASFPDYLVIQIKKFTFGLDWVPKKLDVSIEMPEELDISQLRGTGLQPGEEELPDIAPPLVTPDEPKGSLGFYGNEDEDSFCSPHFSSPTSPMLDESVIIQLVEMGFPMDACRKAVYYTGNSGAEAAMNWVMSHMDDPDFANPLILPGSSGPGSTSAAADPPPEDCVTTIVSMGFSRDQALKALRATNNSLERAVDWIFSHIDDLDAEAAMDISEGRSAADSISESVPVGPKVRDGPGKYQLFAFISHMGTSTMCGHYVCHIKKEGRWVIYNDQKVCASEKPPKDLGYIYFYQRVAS

Molecule: PD-1 cytoplasmic region, 192-288 (from UniProt Q15116) GST-PD-1 (192-288) T234A, ERK1-treated
binding against the reference [1]: weaker

Molecule: PD-1 (from UniProt Q15116) PD-1 T234A
binding against the reference [4]: weaker

B1: ERK1-phosphorylated GST-PD-1 (192-288) (domain or fragment, human, UniProt Q15116 192-288, looked up)
chain: CSRAARGTIGARRTGQPLKEDPSAVPVFSVDYGELDFQWREKTPEPPVPCVPEQTEYATIVFPSGMGTSSPARRGSADGPRSAQPLRPEDGHCSWPL
modifications: phosphorylated by ERK1 in vitro (the paper maps the ERK site to Thr234)
notes: source: E. coli BL21, purified, then phosphorylated by ERK1 in vitro
binding result [6]: binds

Now from value to molecule:

binding against the reference [2]: gained | binding against the reference [3]: gained
Molecule: PD-1 (from UniProt Q15116) pT234 PD-1 peptide

binding against the reference [5]: weaker
Molecule: PD-1 (from UniProt Q15116) PD-1-cHA T234A lysate
